Data published in the supplement of paper PMC10598134.
± gives the standard deviation.

Test: collision cross section of modified peptide (TIMS, N2, iRT-aligned); higher = larger / more extended gas-phase ion
Procedure, shortened: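 On a timsTOF Pro/HT (dda-PASEF, nitrogen, ~2.4 mbar), synthetic peptide pools were analysed after a 120-min nanoflow C18 separation at 60 °C and identified in MaxQuant. Three reference ions served for 1/K0 calibration, with run-wise alignment to the median iRT peptide deviation. Collision cross section comes from the Mason-Schamp equation, using the most abundant feature per charge state averaged over 1–3 technical replicates.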

[1] = charge state: 2, modification: Propionyl
[2] = charge state: 3, modification: Propionyl
[3] = charge state: 2, modification: Succinyl
[4] = charge state: 3, modification: Succinyl
[5] = charge state: 3, modification: Trimethyl (K)
[6] = charge state: 2, modification: hydroxyisobutyryl
[7] = charge state: 3, modification: hydroxyisobutyryl
[8] = charge state: 2, modification: Acetyl (K)
[9] = charge state: 2, modification: Biotin
[10] = charge state: 2, modification: Butyryl
[11] = charge state: 3, modification: Butyryl
[12] = charge state: 2, modification: Crotonyl
[13] = charge state: 2, modification: Dimethyl (K)
[14] = charge state: 3, modification: Dimethyl (K)
[15] = charge state: 2, modification: Formyl
[16] = charge state: 2, modification: Glutarylation
[17] = charge state: 3, modification: Glutarylation
[18] = charge state: 2, modification: GlyGly (K)
[19] = charge state: 3, modification: GlyGly (K)
[20] = charge state: 2, modification: Malonyl
[21] = charge state: 2, modification: Methyl (K)
[22] = charge state: 3, modification: Methyl (K)
[23] = charge state: 2, modification: Trimethyl (K)
[24] = charge state: 2, modification: HexNAc (ST)
[25] = charge state: 3, modification: HexNAc (ST)

SLEEEGAAHSGKR [_SLEEEGAAHSGK(Propionyl)R_]
collision cross section [1]: 416.58 ± 0.64 Å² | collision cross section [2]: 480.52 ± 0.66 Å²

SLEEEGAAHSGKR [_SLEEEGAAHSGK(Succinyl)R_]
collision cross section [3]: 416.07 ± 1.8 Å² | collision cross section [4]: 470.94 ± 2.7 Å²

SLEEEGAAHSGKR [_SLEEEGAAHSGK(Trimethyl (K))R_]
collision cross section [5]: 465.19 ± 1.5 Å²

SLEEEGAAHSGKR [_SLEEEGAAHSGK(hydroxyisobutyryl)R_]
collision cross section [6]: 421.1 ± 1.9 Å² | collision cross section [7]: 479.68 ± 2.1 Å²

SLFFGGKGAPLQR [_SLFFGGK(Acetyl (K))GAPLQR_]
collision cross section [8]: 401.47 ± 0.85 Å²

SLFFGGKGAPLQR [_SLFFGGK(Biotin)GAPLQR_]
collision cross section [9]: 419.13 Å²

SLFFGGKGAPLQR [_SLFFGGK(Butyryl)GAPLQR_]
collision cross section [10]: 406.8 ± 0.75 Å² | collision cross section [11]: 492.14 ± 2.1 Å²

SLFFGGKGAPLQR [_SLFFGGK(Crotonyl)GAPLQR_]
collision cross section [12]: 404.03 ± 0.35 Å²

SLFFGGKGAPLQR [_SLFFGGK(Dimethyl (K))GAPLQR_]
collision cross section [13]: 408.95 ± 0.54 Å² | collision cross section [14]: 451.66 ± 1.6 Å²

SLFFGGKGAPLQR [_SLFFGGK(Formyl)GAPLQR_]
collision cross section [15]: 399.67 ± 0.55 Å²

SLFFGGKGAPLQR [_SLFFGGK(Gluratylation)GAPLQR_]
collision cross section [16]: 407.53 ± 0.99 Å² | collision cross section [17]: 479.63 ± 1.2 Å²

SLFFGGKGAPLQR [_SLFFGGK(GlyGly (K))GAPLQR_]
collision cross section [18]: 414.92 ± 0.35 Å² | collision cross section [19]: 468.6 ± 1.1 Å²

SLFFGGKGAPLQR [_SLFFGGK(Malonyl)GAPLQR_]
collision cross section [20]: 399.96 ± 0.61 Å²

SLFFGGKGAPLQR [_SLFFGGK(Methyl (K))GAPLQR_]
collision cross section [21]: 405.87 ± 0.92 Å² | collision cross section [22]: 448.66 ± 4 Å²

SLFFGGKGAPLQR [_SLFFGGK(Succinyl)GAPLQR_]
collision cross section [3]: 401.28 ± 0.38 Å²

SLFFGGKGAPLQR [_SLFFGGK(Trimethyl (K))GAPLQR_]
collision cross section [23]: 413.8 ± 0.016 Å² | collision cross section [5]: 456.34 ± 1.8 Å²

SLFFGGKGAPLQR [_SLFFGGK(hydroxyisobutyryl)GAPLQR_]
collision cross section [6]: 408.12 ± 0.55 Å² | collision cross section [7]: 482.11 Å²

SLGEPAAGEGSAKR [_SLGEPAAGEGSAK(Acetyl (K))R_]
collision cross section [8]: 382.38 ± 0.43 Å² | collision cross section (charge state: 3, modification: Acetyl (K)): 484.93 ± 0.63 Å²

SLGEPAAGEGSAKR [_SLGEPAAGEGSAK(Biotin)R_]
collision cross section [9]: 403.03 Å²

SLGEPAAGEGSAKR [_SLGEPAAGEGSAK(Butyryl)R_]
collision cross section [10]: 388.15 ± 2 Å² | collision cross section [11]: 487.74 ± 4.3 Å²

SLGEPAAGEGSAKR [_SLGEPAAGEGSAK(Crotonyl)R_]
collision cross section [12]: 387.18 ± 0.89 Å² | collision cross section (charge state: 3, modification: Crotonyl): 487.34 ± 1.3 Å²

SLGEPAAGEGSAKR [_SLGEPAAGEGSAK(Dimethyl (K))R_]
collision cross section [13]: 415.22 ± 2 Å² | collision cross section [14]: 473.88 ± 2.6 Å²

SLGEPAAGEGSAKR [_SLGEPAAGEGSAK(Formyl)R_]
collision cross section [15]: 375.91 ± 0.55 Å² | collision cross section (charge state: 3, modification: Formyl): 481.8 Å²

SLGEPAAGEGSAKR [_SLGEPAAGEGSAK(Gluratylation)R_]
collision cross section [16]: 384.54 ± 0.66 Å² | collision cross section [17]: 479.54 ± 1 Å²

SLGEPAAGEGSAKR [_SLGEPAAGEGSAK(GlyGly (K))R_]
collision cross section [18]: 411.44 ± 1.9 Å² | collision cross section [19]: 486.35 ± 2.8 Å²

SLGEPAAGEGSAKR [_SLGEPAAGEGSAK(Malonyl)R_]
collision cross section [20]: 366.04 ± 1.1 Å²

SLGEPAAGEGSAKR [_SLGEPAAGEGSAK(Methyl (K))R_]
collision cross section [21]: 408.5 ± 0.81 Å² | collision cross section [22]: 480.43 ± 2.6 Å²

SLGEPAAGEGSAKR [_SLGEPAAGEGSAK(Propionyl)R_]
collision cross section [1]: 383.35 ± 1.5 Å² | collision cross section [2]: 488 ± 0.51 Å²

SLGEPAAGEGSAKR [_SLGEPAAGEGSAK(Succinyl)R_]
collision cross section [3]: 381.88 ± 0.8 Å² | collision cross section [4]: 476.57 ± 0.7 Å²

SLGEPAAGEGSAKR [_SLGEPAAGEGSAK(Trimethyl (K))R_]
collision cross section [23]: 404.92 ± 19 Å² | collision cross section [5]: 462.02 ± 2.7 Å²

SLGEPAAGEGSAKR [_SLGEPAAGEGSAK(hydroxyisobutyryl)R_]
collision cross section [6]: 389.47 ± 1.5 Å² | collision cross section [7]: 485.86 ± 2.8 Å²

SLIGKVDGTSHVTGK [_SLIGKVDGT(HexNAc (ST))SHVTGK_]
collision cross section [24]: 438.41 Å²

SLIGKVDGTSHVTGK [_SLIGKVDGTSHVT(HexNAc (ST))GK_]
collision cross section [25]: 501.68 ± 0.18 Å²

SLKLNTAEDAK [_SLK(Acetyl (K))LNTAEDAK_]
collision cross section [8]: 373.49 ± 1.6 Å²

SLKLNTAEDAK [_SLK(Biotin)LNTAEDAK_]
collision cross section [9]: 397.96 Å²

SLKLNTAEDAK [_SLK(Butyryl)LNTAEDAK_]
collision cross section [10]: 378.05 ± 1.5 Å²

SLKLNTAEDAK [_SLK(Crotonyl)LNTAEDAK_]
collision cross section [12]: 378.17 ± 0.26 Å²

SLKLNTAEDAK [_SLK(Dimethyl (K))LNTAEDAK_]
collision cross section [13]: 369.7 ± 0.36 Å² | collision cross section [14]: 468.91 ± 1.6 Å²

SLKLNTAEDAK [_SLK(Formyl)LNTAEDAK_]
collision cross section [15]: 369.44 ± 0.39 Å²

SLKLNTAEDAK [_SLK(Gluratylation)LNTAEDAK_]
collision cross section [16]: 381.67 ± 0.53 Å²

SLKLNTAEDAK [_SLK(GlyGly (K))LNTAEDAK_]
collision cross section [18]: 394.52 ± 0.87 Å² | collision cross section [19]: 458.17 ± 2 Å²

SLKLNTAEDAK [_SLK(Malonyl)LNTAEDAK_]
collision cross section [20]: 374.06 ± 0.0012 Å²

SLKLNTAEDAK [_SLK(Methyl (K))LNTAEDAK_]
collision cross section [21]: 364.71 ± 0.36 Å² | collision cross section [22]: 470.64 ± 4.7 Å²

SLKLNTAEDAK [_SLK(Propionyl)LNTAEDAK_]
collision cross section [1]: 376 ± 0.94 Å²

SLKLNTAEDAK [_SLK(Succinyl)LNTAEDAK_]
collision cross section [3]: 377.2 ± 0.87 Å²

SLKLNTAEDAK [_SLK(Trimethyl (K))LNTAEDAK_]
collision cross section [23]: 378.59 ± 0.02 Å² | collision cross section [5]: 461.43 ± 2.4 Å²

SLKLNTAEDAK [_SLK(hydroxyisobutyryl)LNTAEDAK_]
collision cross section [6]: 378.64 ± 0.28 Å²

SLYASSPGGVYATR [_S(HexNAc (ST))LYASSPGGVYATR_]
collision cross section [25]: 478.28 ± 0.91 Å²

SLYASSPGGVYATR [_SLYAS(HexNAc (ST))SPGGVYATR_]
collision cross section [24]: 421.13 ± 0.62 Å²

SNEEGSEEKGPEVR [_SNEEGSEEK(Acetyl (K))GPEVR_]
collision cross section [8]: 400.7 ± 1 Å²

SNEEGSEEKGPEVR [_SNEEGSEEK(Butyryl)GPEVR_]
collision cross section [10]: 407.11 ± 0.23 Å² | collision cross section [11]: 490.17 Å²

SNEEGSEEKGPEVR [_SNEEGSEEK(Crotonyl)GPEVR_]
collision cross section [12]: 406.51 ± 0.28 Å²

SNEEGSEEKGPEVR [_SNEEGSEEK(Dimethyl (K))GPEVR_]
collision cross section [13]: 393.74 ± 1.1 Å² | collision cross section [14]: 467.17 ± 0.73 Å²

SNEEGSEEKGPEVR [_SNEEGSEEK(Formyl)GPEVR_]
collision cross section [15]: 397.09 ± 0.55 Å²

SNEEGSEEKGPEVR [_SNEEGSEEK(Gluratylation)GPEVR_]
collision cross section [16]: 407.15 ± 0.96 Å² | collision cross section [17]: 470.21 Å²
